Measured values as given in US5705355A, “Hirudin, pharmaceutical compositions comprising it and their use” (Transgene, S.A., priority 1984, dated 1998).
Like-named read-outs stand apart in the source and are kept apart here.

Columns and labels:
DIC = conditions: rat, in vivo; cited from earlier work
mice = conditions: cited from earlier work
[1] = in vivo; cited from earlier work
thrombin [2] = target: T1, thrombin (Homo sapiens, UniProt P00734); conditions: first estimate; read-out: dissociation constant of the 1:1 thrombin-hirudin complex; cited from earlier work
[3] = test system: plasmin, chymotrypsin A, trypsin, papain, pepsin, subtilopeptidase A; conditions: cited from earlier work
thrombin [4] = target: T1, thrombin; conditions: cited from earlier work
[5] = heat / acid-heat treatment (70° C., pH 2.8, 15 min), antithrombin activity afterwards; format: physicochemical
Experimental: In order to characterize the hirudin obtained from E. coli, analysis was performed directly on culture samples after induction, which were heated to 70° C. for 15 min or heated to 70° C. after reduction of the pH to 2.8 with HCl.
In the latter case, the pH of the extract was brought back to neutral before being assayed. […] This can reflect either the degradation or the inactivation of constituents of the extract which inhibited the action of hirudin, or possibly the rather low pH and the heating stage may, in some cases, provide for a more complete reforming of the disulfide bridges which are needed for hirudin to show maximum activity. […]
When the labeled materials from non-induced PTG718 cultures and from cultures at 3 and 5 hours after induction are treated at 70° C. and at pH 2.8 for 15 min, centrifuged to remove the denatured proteins and analyzed on an SDS-polyacrylamide gel, it is clear that the bulk of the labeled E. coli proteins are removed from the sample (FIG. 9-- lanes 1 and 2). […]
Another portion, is adjusted to pH 2.8 with dilute HCl, and then heated to 70° C. for 15 minutes. […] The supernatant is neutralized by adding dilute NaOH and the antithrombin activity is then measured. After the small modifications in volume due to the acidification and neutralization are taken into account, it can be calculated that 100% of the original activity survives this acid/heat treatment. […]

[6] = test system: rats, dogs, rabbits and mice; conditions: in vivo, iv; cited from earlier work
rabbits = conditions: intravenously and subcutaneously; cited from earlier work

## hirudin
DIC
  treating DIC compared with heparin: far superior to heparin
mice
  LD50: > 500,000 U/kg of body weight
  tolerated dose: up to 1 g per kg
mice; repeated injections over a period of two weeks
  sensitization reactions: do not lead to sensitization reactions
mice; same value expressed by weight
  LD50: > 60 mg/kg
[1]
  elimination: rapidly eliminated
Thrombin [2]
  Kd: 0.08 nM
[3]; chymotrypsin A
  hirudin activity on digestion with chymotrypsin A: resisted
[3]; papain
  hirudin activity on digestion with papain: sensitive
[3]; pepsin
  hirudin activity on digestion with pepsin: sensitive
[3]; plasmin
  hirudin activity on digestion with plasmin: resisted
[3]; subtilopeptidase A
  hirudin activity on digestion with subtilopeptidase A: sensitive
[3]; trypsin
  hirudin activity on digestion with trypsin: resisted
Thrombin [4]; after further stages of purification
  specific activity: 10,400 U/mg
Thrombin [4]; hirudin extracted from whole leeches
  specific activity: 6,500 anti-thrombin units per milligram
Thrombin [4]; purified approximately 650 times from heads of leeches
  specific activity: 8,500 units per milligram
Thrombin [4]; sulfate ester (Tyr 63) made to disappear completely
  activity relative to the initial hirudin activity: 55%
[5]
  resistance to heat treatment under conditions of quite low pH: resistance to heat treatment
[5]; 70° C. for 15 min, or 70° C. after reduction of the pH to 2.8
  loss in activity after heat or acid/heat treatment: no loss in activity
[6]
  tolerance: well tolerated
rabbits
  tolerated dose: up to 10 mg/kg
